Series [1] in a line: Diameter of particles by light microscopy. In kind it is physicochemical.
Method: A 250 mg sample of the enzyme horse radish peroxidase (HRP) (Sigma Chemical Co, St. Louis, Mo.) was dissolved in 10 ml of a 0.05 M phosphate buffer solution having a pH of 7.2. The solution was atomized through an ultrasonic nozzle (SonoTek Corp., Model 8700-60MS) into a stirred container of liquid nitrogen. The liquid nitrogen containing the frozen atomized spheres was next placed in a −80° C. freezer until the liquid nitrogen evaporated, about one to two hours. The frozen protein spheres were then placed in a lyophilizer (Virtis Company Inc., Model 10-MR-TR) for at least 12 hours to produce porous particles.
The sample prepared from 100 mg ammonium bicarbonate/ml was suspended in ethyl acetate and fragmented by ultrasonic irradiation.
This was ultrasonicated to form frozen particles which were lyophilized according to the procedure of Example 1.
Series [2] is described as follows: Particle size analysis of fragmented particles (Microtrac small particle analyzer). Format: physicochemical. The note with it: for mean particle diameter / size distribution for the effective diameters: ammonium bicarbonate buffer, ethyl acetate, ultrasonic irradiation; for mean particle diameter after five minutes sonication: atomized into liquid nitrogen, lyophilized, sonicated in ethanol 5 min; for Particle Size: sonicated 5 min. The procedure: A 50 mg sample of the lyophilized microspheres was suspended in 5 ml of 100 percent ethanol solution and cooled in an ice water bath to 0° C. With continuous cooling, the HRP porous particles were then exposed to an ultrasonic probe (Virtis Company Inc., Virsonic 300) for different times. Samples were analyzed for particle size diameter on a Microtrac Model 7995 Small Particle Analyzer (Leeds and Northrup).
The hemoglobin particles were suspended in ethyl acetate and fragmented by subjecting them to ultrasonic irradiation with cooling by an ice bath.

Series [3] is described as follows: Scanning electron micrographs (SEM) of particles. In kind it is physicochemical. On the procedure:
125 mg bovine hemoglobin dissolved in 5 ml 0.05 M ammonium bicarbonate was formed into particles by spraying and lyophilization, according to the procedure of Example 1. […] A control solution containing only ammonium bicarbonate was also sprayed and lyophilized as described in Example 1.
The hemoglobin particles were suspended in ethyl acetate and fragmented by subjecting them to ultrasonic irradiation with cooling by an ice bath. When the resulting particles were subjected to particle size analysis using a Leeds & Northrup Microtrac small particle analyzer, the mean particle diameter was 3.7±2.8 micrometers.

A short description of series [4]: Particle size analysis of fragmented particles (Microtrac small particle analyzer). In kind it is physicochemical. The note with it: ethyl acetate.
Series [5] is described as follows: Heme absorption, second derivative spectra of processed hemoglobin. Format: physicochemical, bovine. The settings on record: homogenized particles stored in ethyl acetate for seven days, dissolved in 0.2 M sodium phosphate pH 7.7. On the procedure: The homogenized hemoglobin particles were stored in ethyl acetate for seven days, after which the solvent was decanted and the hemoglobin dried under vacuum at room temperature. The resulting solid was dissolved in 0.2 M sodium phosphate pH 7.7, and its heme absorption compared with that of freshly dissolved bovine hemoglobin, as well as with hemoglobin denatured in 6 M guanidinium chloride, using a Hewlett Packard diode array spectrophotometer. In order to accentuate spectral features, the second derivative of absorption with respect to wavelength was obtained for each sample.

Series [6] can be described thus: HRP enzyme activity, rate of oxidation of p-anisidine. Format: biochemical. The procedure: The activity of the HRP was determined after the lyophilization step and after the ultrasonication step. The method used to determine the enzyme activity is based upon the rate of oxidation of p-anisidine and is described in detail in The Worthington Enzyme Manual, Worthington, D. D., (ed.), Worthington Biochemical Corp., Freehold, N.J., p. 254 (1988).

Series [7] is described as follows: SOD enzyme activity, inhibition of the reduction of nitro-blue tetrazolium by the superoxide anion. Format: biochemical. On the procedure: The activity of the SOD was determined after the lyophilization step and after the ultrasonication step. The method used to determine the enzyme activity is based upon the ability of SOD to inhibit the reduction of nitro-blue tetrazolium by the superoxide anion. This assay is described in detail by Winterbourne, et al., in “The Estimation of Red Cell Superoxide Dismutase Activity,” J. Lab. Clin. Med., 85, 337 (1975). After the lyophilization step, the SOD had 94% of its original activity. After the ultrasonication step, the SOD has 91% of its original activity.

Take `NCC(=O)O` [Glycine]: the “mean diameter of porous particles” value in series [1] (light microscopy, after lyophilization, before ultrasonication) came out at 24.4±14.6 micrometers. Besides, the “mean diameter after ultrasonication” value in series [2] ([…] solution in deionized water, ultrasonication for 4 min) was found to be 3.2±1.9 micrometers.
As to `C[C@]12CC[C@H]3[C@@H](CCC4=CC(=O)CC[C@@]43C)[C@@H]1CC[C@@H]2O` [testosterone, reference compound], the “mean diameter of resulting particles” value in series [2] ([…] solution in 1,4 dioxane) is recorded as 5.4±2.9 micrometers.
On to bovine hemoglobin, for which, in series [2], the “mean particle diameter / size distribution for the effective diameters” value worked out at 3.7±2.8 micrometers and the “mean particle diameter after five minutes sonication” value is reported as 1.8±1.3 micrometers. For the same compound, the “mean particle diameter after 5 minutes sonication” value in series [2] (sprayed into liquid argon before lyophilization) came to 3.6±2.8 micrometers. Besides, in series [3], the “length of flat irregular plates (SEM of sonicated particles)” value was approximately 1.0 micrometer and the “thickness of flat irregular plates (SEM of sonicated particles)” value came out at 0.1 micrometer. Further, the “size distribution for the effective diameters” value in series [4] (after 80 sec of homogenization) worked out at 7.2±3.7 micrometers. For the same compound, the “particle diameter size distribution” value in series [4] (after 300 sec of homogenization) came out at 6.6±3.7 micrometers. The “second derivative heme absorption spectrum compared with fresh hemoglobin” value in series [5] was “identical”.
Regarding catalase, the “mean particle diameter after five minutes sonication” value in series [2] is listed as 4.5±3.3 micrometers.
As to dextran, the “mean particle size as a function of solution concentration” value in series [2] (20, 10, 5, 1, 2.5 and 0.5 percent solutions, ethanol, ultrasonicated five minutes) is “smallest particles are produced using 0.5 to 5% dextran solutions”.
As to heparin [reference compound], the “mean particle diameter after five minutes sonication” value in series [2] stood at 6.9±4.0 micrometers.
Take horse radish peroxidase [HRP]: the “diameter of the porous spheres after lyophilization” value in series [1] (before sonication, range) was 25-35 micrometers. The “mean particle size as a function of time of ultrasonication” value in series [2] (after 100 seconds ultrasonication) is “under five”. Also, in series [2], the “mean particle diameter / size distribution for the effective diameters” value worked out at 2.8±2.2 micrometers. Further, the Particle Size in series [2] (citrate/phosphate buffer pH 5.2) was 2.9 ± 2.1 µm; in series [2] (phosphate buffer pH 7.2), 3.5 ± 2.8 µm; in series [2] (tris buffer pH 9.1), 6.2 ± 3.7 µm. For the same compound, the “original activity retained after each step of the particle size reduction process” value in series [6] (after the lyophilization step and after the ultrasonication step, phosphate buffer pH 7.2, ethanol) was not below 90%. Further, in series [6] (ammonium bicarbonate buffer, ethyl acetate, ultrasonic fragmentation (Example 13)), the “activity retained during the process” value is listed as 90%.
As to superoxide dismutase [SOD], the “mean particle diameter after five minutes sonication” value in series [2] worked out at 2.7±2.1 micrometers. In series [7] (after lyophilization), the “original activity after the lyophilization step” value stood at 94%. In series [7] (after ultrasonication), the “original activity after the ultrasonication step” value came out at 91%.

The values are drawn from patent publication US6569458B1, “Process for producing small particles of biologically active molecules” (Alkermes Controlled Therapeutics, Inc., priority 1989, dated 2003).
